Experimental findings from patent publication US20260234280A1 are described below.

The target of experiment [1] is cynomolgus monkey CD3 recombinant protein (Acro, Cat. No. CDD-C52W4) (cynomolgus monkey) (UniProt Q95LI5). As to the kind of experiment: SPR (Biacore), CD3 immobilised on CM5 chip, antibody as analyte, 1:1 model. (SPR reads the build-up and loss of mass on a sensor chip optically.)
Experiment [2] deals with human CD3 recombinant protein (Acro, Cat. No. CDD-H52W1) (human) (UniProt P07766). The description is as above.
Sequence of human CD3 recombinant protein (Acro, Cat. No. CDD-H52W1) (human) (P07766 23-126): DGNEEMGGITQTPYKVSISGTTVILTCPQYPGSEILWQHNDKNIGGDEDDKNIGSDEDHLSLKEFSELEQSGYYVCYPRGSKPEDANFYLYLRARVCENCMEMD
Experiment [3] has as its target human BCMA (human-BCMA) (human) (UniProt Q02223). As to the kind of experiment: flow cytometry (FACS), NCI-H929 cells. Background: Flow cytometry measures light scatter and fluorescence of single cells or particles in a stream.
The target in experiment [4] is human CD3 naturally expressed on Jurkat T lymphocytes and human PBMCs (human) (UniProt P07766). The experiment is described as follows: flow cytometry (FACS), Jurkat cells.
Sequence of human CD3 naturally expressed on Jurkat T lymphocytes and human PBMCs (human) (P07766 23-207): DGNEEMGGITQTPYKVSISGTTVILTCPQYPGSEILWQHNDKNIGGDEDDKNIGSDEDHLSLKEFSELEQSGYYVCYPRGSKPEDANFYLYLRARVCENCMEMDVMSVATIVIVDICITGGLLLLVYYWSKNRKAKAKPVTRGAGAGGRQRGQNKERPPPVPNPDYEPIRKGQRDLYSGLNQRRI
Experiment [5] addresses cynomolgus monkey CD3 naturally expressed on cyno PBMCs (cynomolgus monkey) (UniProt Q95LI5). The experiment is described as follows: flow cytometry (FACS), cyno PBMCs.
Experiment [6] deals with human GPRC5D (human-GPRC5D) (human) (UniProt Q9NZD1). As to the kind of experiment: flow cytometry (FACS), human GPRC5D-CHOK1 cells.
Sequence of human GPRC5D (human-GPRC5D) (human) (Q9NZD1 whole entry): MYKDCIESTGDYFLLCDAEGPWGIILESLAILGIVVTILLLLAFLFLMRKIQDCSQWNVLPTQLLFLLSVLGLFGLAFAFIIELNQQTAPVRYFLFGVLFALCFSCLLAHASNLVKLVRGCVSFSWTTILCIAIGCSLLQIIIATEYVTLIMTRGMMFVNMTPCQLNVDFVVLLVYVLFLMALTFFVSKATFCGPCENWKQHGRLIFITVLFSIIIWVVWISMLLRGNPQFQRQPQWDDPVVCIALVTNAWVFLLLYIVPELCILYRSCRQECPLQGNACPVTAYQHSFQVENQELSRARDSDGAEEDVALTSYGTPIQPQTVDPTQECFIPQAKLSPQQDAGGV
Experiment [7] concerns the target cynomolgus monkey BCMA (cyno-BCMA) (cynomolgus monkey). The experiment is described as follows: flow cytometry (FACS), cynomolgus monkey BCMA-CHOK1 cells.
Experiment [8] concerns the target human BCMA (human-BCMA) (human) (UniProt Q02223). As to the kind of experiment: flow cytometry (FACS), RPMI8226 cells.
Experiment [9] shares this target. As to the kind of experiment: cell-based or functional assay.
The next experiment concerns the target soluble BCMA (UniProt Q02223). As to the kind of experiment: cell-based or functional assay.
Experiment [10] addresses human BCMA (human-BCMA) (human) (UniProt Q02223). As to the kind of experiment: flow cytometry (FACS), human BCMA-CHOK1 cells.
Experiment [11] has as its target cynomolgus monkey BCMA recombinant protein (Acro, Cat. No. BCA-C52H7) (cynomolgus monkey). As to the kind of experiment: SPR (Biacore), antibody captured by anti-human IgG (Fc) on CM5 chip, BCMA as analyte, 1:1 model.
The target of experiment [12] is human BCMA recombinant protein (Acro, Cat. No. BCA-H522y) (human) (UniProt Q02223). Described as above.
Sequence of human BCMA recombinant protein (Acro, Cat. No. BCA-H522y) (human) (Q02223 1-54 limits assumed): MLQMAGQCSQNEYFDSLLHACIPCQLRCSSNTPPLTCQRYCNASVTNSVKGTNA
For experiment [13], the target named is human CD3 naturally expressed on Jurkat T lymphocytes and human PBMCs (human) (UniProt P07766). The experiment is described as follows: flow cytometry (FACS), human PBMCs.
The target of experiment [14] is human BCMA and human GPRC5D, the dual targets expressed on NCI-H929 and RPMI8226 tumor cells. As to the kind of experiment: flow cytometry (FACS), NCI-H929 cells.
The target is the same in experiment [15]. The experiment is described as follows: flow cytometry (FACS), RPMI8226 cells.

Sequence of soluble BCMA (Q02223 1-54 limits assumed): as above
Sequence of cynomolgus monkey CD3 recombinant protein (Acro, Cat. No. CDD-C52W4) (cynomolgus monkey) (Q95LI5 22-117): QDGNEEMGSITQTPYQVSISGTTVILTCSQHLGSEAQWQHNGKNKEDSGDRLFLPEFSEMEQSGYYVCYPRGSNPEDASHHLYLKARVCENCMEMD
Sequence of human BCMA (human-BCMA) (human) (Q02223 whole entry): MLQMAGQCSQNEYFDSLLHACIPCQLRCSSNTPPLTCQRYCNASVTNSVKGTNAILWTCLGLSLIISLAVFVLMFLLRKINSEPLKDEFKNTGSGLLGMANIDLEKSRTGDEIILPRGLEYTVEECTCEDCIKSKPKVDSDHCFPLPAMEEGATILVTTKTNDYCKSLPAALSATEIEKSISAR
Sequence of cynomolgus monkey BCMA (cyno-BCMA) (cynomolgus monkey) (Q02223 other isoform, or with tags, fused parts or gaps): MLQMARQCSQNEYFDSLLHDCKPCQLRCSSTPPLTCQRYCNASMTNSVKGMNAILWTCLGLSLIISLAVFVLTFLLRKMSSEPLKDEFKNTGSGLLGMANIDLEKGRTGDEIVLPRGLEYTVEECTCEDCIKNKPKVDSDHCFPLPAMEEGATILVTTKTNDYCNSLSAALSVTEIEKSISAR
Sequence of cynomolgus monkey CD3 naturally expressed on cyno PBMCs (cynomolgus monkey) (Q95LI5 22-198): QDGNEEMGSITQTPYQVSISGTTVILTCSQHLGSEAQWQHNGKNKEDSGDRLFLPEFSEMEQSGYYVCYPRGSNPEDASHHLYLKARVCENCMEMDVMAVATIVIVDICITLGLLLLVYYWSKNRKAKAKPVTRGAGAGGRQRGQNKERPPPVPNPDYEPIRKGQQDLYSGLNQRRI

As a reminder, the Kd is the concentration at which binding is half-saturated. The koff is the rate constant with which the complex falls apart. By kon is commonly meant a measure of how fast the partners come together. “Talquetamab analogue (GPRC5D/CD3), GPRC5DxCD3 bispecific antibody from Janssen”: in experiment [1], the dissociation constant (Kd) was found to be 22.2 nM, the off-rate constant (koff) was found to be 0.00379 s⁻¹ and the association rate constant (kon) is 170000 M⁻¹ s⁻¹. Also, in experiment [2], the equilibrium dissociation constant (Kd) worked out at 18 nM, the koff was 0.00201 s⁻¹ and the association rate constant (kon) came to 112000 M⁻¹ s⁻¹.
For orientation: EC50 means the concentration needed to bring the measured effect to its halfway point. As for “Teclistamab analogue (BCMA/CD3), BCMAxCD3 bispecific antibody from Janssen”, the EC50 in experiment [3] came to 2.43 nM; in experiment [4], 3.22 nM; in [5], 55.8 nM; in experiment [7] it was 15.3 nM; in [8] it was 1.17 nM; in experiment [10], 2.63 nM. In experiment [13], this substance registered an EC50 of 6.06 nM. In addition, the Top MFI in experiment [3] is 669 MFI; in experiment [4], 825 MFI; in experiment [5], 2060 MFI; in experiment [6] it was 160 MFI; in experiment [7], 1770 MFI; in [8] it was 169 MFI. In addition, the Top MFI in [10] came out at 2280 MFI; in experiment [13] it was 672 MFI. In [9], the TDCC Cytotoxicity (max) on NCI-H929 with 0 ug/ml BCMA came to 40.9. In addition, the TDCC EC50 (nM) on NCI-H929 with 0 ug/ml BCMA in experiment [9] was determined as 0.115 nM. Moreover, the Ratio (EC50), TDCC on NCI-H929 with 2.5 ug/ml against 0 ug/ml BCMA in the experiment with soluble BCMA was 21. The TDCC Cytotoxicity (max) on NCI-H929 with 2.5 ug/ml BCMA with soluble BCMA is 53.9. This substance registered a TDCC EC50 (nM) on NCI-H929 with 2.5 ug/ml BCMA with soluble BCMA of 2.36 nM. The fold change of TDCC EC50 on NCI-H929 in the presence of 2500 ng/ml soluble BCMA with soluble BCMA worked out at 25 fold. Besides, the Kd in experiment [1] came to 21.1 nM; in [2] it was 21 nM; in [11] it was 8.49 nM; in experiment [12], 0.379 nM. In addition, the off-rate (koff) in experiment [1] came out at 0.00336 s⁻¹; in [2], 0.00522 s⁻¹; in [11] it was 0.0235 s⁻¹; in [12], 0.00135 s⁻¹. Moreover, the kon in [1] is 159000 M⁻¹ s⁻¹; in experiment [2], 248000 M⁻¹ s⁻¹; in [11], 2.77e+06 M⁻¹ s⁻¹; in [12], 3.55e+06 M⁻¹ s⁻¹.
Take “hIgG1 LALA isotype (Biointron, Cat. No. B109802) (antibody)”: the Top MFI in [14] came to 104 MFI; in experiment [15], 112 MFI.
